According to article PMC2291074 (Molecular Vision, 2008):
Ends that are not written are not given here.

T1: recombinant human αB-crystallin (human, UniProt P02511 1-175)
T1 construct: human αB-crystallin, cDNA cloned into pET-23d(+); tryptic peptides 1-11 and 164-175 were observed; No tag is named and purification was by SEC and ion exchange, so it is probably untagged; source: E. coli BL21(DE3) pLysS, purified (size exclusion chromatography, then ion-exchange chromatography)
T1 sequence (looked up): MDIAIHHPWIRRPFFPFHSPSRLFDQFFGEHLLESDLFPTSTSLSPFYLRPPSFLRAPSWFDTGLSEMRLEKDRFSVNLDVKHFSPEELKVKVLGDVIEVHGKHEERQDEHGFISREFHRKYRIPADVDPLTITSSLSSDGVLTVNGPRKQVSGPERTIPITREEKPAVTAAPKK


Assays:
[1] = target: T1, recombinant human αB-crystallin
[2] = target: T1, recombinant human αB-crystallin; test: cross-linking; sulfo-SBED label transfer: 0.25 mg derivatized peptide with 0.25 mg αB-crystallin at 37 °C for 2 h; unbound peptide removed on a 10,000 Da cut-off filter; photolysis at 365 nm for 15 min on ice; biotin on αB-crystallin detected by SDS-PAGE and avidin-HRP blot; conditions: both partners purified

| light scattering at 60 min of βL-crystallin (100 μg) denatured at 55 °C with 5 μg αB-crystallin and 60 μg substituted peptide (αB-crystallin alone: decreased by 41%); no anti-chaperone effect [1] [%] | binding result [2] | Binder |
| --- | --- | --- |
| 53 | – | SDADHGERLMSFRPIC [substituted peptide] |
| – | binds | SDAYHIERLMSFRPIC (also: sulfo-SBED cross-linker attached, site not given here, The peptide has no lysine, so the amine-specific reagent probably sits on the N-terminal amine; also called biotin-derivatized peptide; source: synthetic peptide, purified by HPLC, derivatized with sulfo-SBED and dialyzed) [sulfo-SBED-derivatized βA3/A1_(102–117) peptide] |
